From patent publication US20230242902A1, “A HIGHLY ERROR-PRONE […] R[…] FOR TARGETED CONTINUOUS EVOLUTION IN VIVO” (The Regents of the University of California, priority 2017, published 2023)

System: p1
Assay: p1 copy number by p1-encoded mKate2 fluorescence
Assay type: cell-based, S. cerevisiae
Conditions: OR-Y24, measured in triplicate
How it was run: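 Read-out is mKate2 fluorescence of saturated OR-Y24 cultures, measured by flow cytometry or by plate reader with OD600 normalization. Flow values were converted by a qPCR-derived linear calibration; plate values were scaled to a w.t. TP-DNAP1 control.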

Row | Molecule | Mean fold-increase over w.t. (p1 copy number)
1 | S705L: TP-DNAP1 variant (protein) MDYKDKALNDLRNVYADFDSLPLDFRQILIKDRATLLQKEDVEKKILERQEDAKKYAEYLKQSEIPERISLPNIKRHKGVSISFEETSEDMVLEPRPFIFDGLNIRCFRRETIFSLKNKILNMVKESSSFKNVSRQSVSFMYFKIFNKGKVIASTKSVNIYEDKIDERLEDLCNNFDDVLKKIIDVTYGYESLFVSETYSYVIFYAKSIYFPQPRCVNNWGNNIPNILTFDSFKLFTANKNNVSCIKQCSRFLWQKDFNTLEEMIEYKNGNICIVTPQLHINDVRDIKSFNDIRLYSESPIKTFSVIDNTITYLFYFKEHLGVIFNITKSRHDRRVTKFSPLSKFSDVKNITVCFDIESYFDPEKESNQVNIPFICCASIIYNKVIGNIVDFEGRDCVAQMIEYVVDICGELNISSVELIAHNGGGYDFHYILSSMYNPAAIKNILIRNNSFISFNFAHDGVKFSVKDSYSFLLCSLANASKAFLNEETFKKTDFPHHDLKTADDLYKVYKEWSSVNTEINHVVEKEKLLITSEHIVNFTKNDKSKTLIEWSKDYCRNDVLVLSKVWLEFKNAVEDIFNCELVDQTMTLAGLSYKLFQANMPFDVELRHPNKEDYFNMREALIGGRCISVNGIYKDVLCLDVKSLYPASMAFYDQPYGSFKRVSSRPKDELGIYYVRVTPNRNNKSNFFPIRSHNKITYNNFEELTYIAWYTNVDIDIGLSEGHNIEYIPFDSYGNIGYSWSKKGKIFEKYIKDVLYKLKIKYEKQNNKVKRNVIKIIMNSLWGKFAQKWVNFEYFIKSEDDIDFESEEAYKIWDTDFMLIKKIKESTYSSKPIQNGVFTLSWARYHMKSIWDAGAKEGAECIYSDTDSIFVHKEHFKKNAKFMLNGLKVPIIGSEVGQLELECEFDKLLCAGKKQYMGFYTYFQDGKPCIKEKKRFKGIPSNYIIPELYAHLLSGADKEAKIQFLKFRREWGSVKGYIENKTVKAT | 1.98 fold
2 | S705F: TP-DNAP1 variant (protein) MDYKDKALNDLRNVYADFDSLPLDFRQILIKDRATLLQKEDVEKKILERQEDAKKYAEYLKQSEIPERISLPNIKRHKGVSISFEETSEDMVLEPRPFIFDGLNIRCFRRETIFSLKNKILNMVKESSSFKNVSRQSVSFMYFKIFNKGKVIASTKSVNIYEDKIDERLEDLCNNFDDVLKKIIDVTYGYESLFVSETYSYVIFYAKSIYFPQPRCVNNWGNNIPNILTFDSFKLFTANKNNVSCIKQCSRFLWQKDFNTLEEMIEYKNGNICIVTPQLHINDVRDIKSFNDIRLYSESPIKTFSVIDNTITYLFYFKEHLGVIFNITKSRHDRRVTKFSPLSKFSDVKNITVCFDIESYFDPEKESNQVNIPFICCASIIYNKVIGNIVDFEGRDCVAQMIEYVVDICGELNISSVELIAHNGGGYDFHYILSSMYNPAAIKNILIRNNSFISFNFAHDGVKFSVKDSYSFLLCSLANASKAFLNEETFKKTDFPHHDLKTADDLYKVYKEWSSVNTEINHVVEKEKLLITSEHIVNFTKNDKSKTLIEWSKDYCRNDVLVLSKVWLEFKNAVEDIFNCELVDQTMTLAGLSYKLFQANMPFDVELRHPNKEDYFNMREALIGGRCISVNGIYKDVLCLDVKSLYPASMAFYDQPYGSFKRVSSRPKDELGIYYVRVTPNRNNKSNFFPIRSHNKITYNNFEEFTYIAWYTNVDIDIGLSEGHNIEYIPFDSYGNIGYSWSKKGKIFEKYIKDVLYKLKIKYEKQNNKVKRNVIKIIMNSLWGKFAQKWVNFEYFIKSEDDIDFESEEAYKIWDTDFMLIKKIKESTYSSKPIQNGVFTLSWARYHMKSIWDAGAKEGAECIYSDTDSIFVHKEHFKKNAKFMLNGLKVPIIGSEVGQLELECEFDKLLCAGKKQYMGFYTYFQDGKPCIKEKKRFKGIPSNYIIPELYAHLLSGADKEAKIQFLKFRREWGSVKGYIENKTVKAT | 1.76 fold
3 | T706P: TP-DNAP1 variant (protein) MDYKDKALNDLRNVYADFDSLPLDFRQILIKDRATLLQKEDVEKKILERQEDAKKYAEYLKQSEIPERISLPNIKRHKGVSISFEETSEDMVLEPRPFIFDGLNIRCFRRETIFSLKNKILNMVKESSSFKNVSRQSVSFMYFKIFNKGKVIASTKSVNIYEDKIDERLEDLCNNFDDVLKKIIDVTYGYESLFVSETYSYVIFYAKSIYFPQPRCVNNWGNNIPNILTFDSFKLFTANKNNVSCIKQCSRFLWQKDFNTLEEMIEYKNGNICIVTPQLHINDVRDIKSFNDIRLYSESPIKTFSVIDNTITYLFYFKEHLGVIFNITKSRHDRRVTKFSPLSKFSDVKNITVCFDIESYFDPEKESNQVNIPFICCASIIYNKVIGNIVDFEGRDCVAQMIEYVVDICGELNISSVELIAHNGGGYDFHYILSSMYNPAAIKNILIRNNSFISFNFAHDGVKFSVKDSYSFLLCSLANASKAFLNEETFKKTDFPHHDLKTADDLYKVYKEWSSVNTEINHVVEKEKLLITSEHIVNFTKNDKSKTLIEWSKDYCRNDVLVLSKVWLEFKNAVEDIFNCELVDQTMTLAGLSYKLFQANMPFDVELRHPNKEDYFNMREALIGGRCISVNGIYKDVLCLDVKSLYPASMAFYDQPYGSFKRVSSRPKDELGIYYVRVTPNRNNKSNFFPIRSHNKITYNNFEESPYIAWYTNVDIDIGLSEGHNIEYIPFDSYGNIGYSWSKKGKIFEKYIKDVLYKLKIKYEKQNNKVKRNVIKIIMNSLWGKFAQKWVNFEYFIKSEDDIDFESEEAYKIWDTDFMLIKKIKESTYSSKPIQNGVFTLSWARYHMKSIWDAGAKEGAECIYSDTDSIFVHKEHFKKNAKFMLNGLKVPIIGSEVGQLELECEFDKLLCAGKKQYMGFYTYFQDGKPCIKEKKRFKGIPSNYIIPELYAHLLSGADKEAKIQFLKFRREWGSVKGYIENKTVKAT | 1.73 fold
4 | T706R: TP-DNAP1 variant (protein) MDYKDKALNDLRNVYADFDSLPLDFRQILIKDRATLLQKEDVEKKILERQEDAKKYAEYLKQSEIPERISLPNIKRHKGVSISFEETSEDMVLEPRPFIFDGLNIRCFRRETIFSLKNKILNMVKESSSFKNVSRQSVSFMYFKIFNKGKVIASTKSVNIYEDKIDERLEDLCNNFDDVLKKIIDVTYGYESLFVSETYSYVIFYAKSIYFPQPRCVNNWGNNIPNILTFDSFKLFTANKNNVSCIKQCSRFLWQKDFNTLEEMIEYKNGNICIVTPQLHINDVRDIKSFNDIRLYSESPIKTFSVIDNTITYLFYFKEHLGVIFNITKSRHDRRVTKFSPLSKFSDVKNITVCFDIESYFDPEKESNQVNIPFICCASIIYNKVIGNIVDFEGRDCVAQMIEYVVDICGELNISSVELIAHNGGGYDFHYILSSMYNPAAIKNILIRNNSFISFNFAHDGVKFSVKDSYSFLLCSLANASKAFLNEETFKKTDFPHHDLKTADDLYKVYKEWSSVNTEINHVVEKEKLLITSEHIVNFTKNDKSKTLIEWSKDYCRNDVLVLSKVWLEFKNAVEDIFNCELVDQTMTLAGLSYKLFQANMPFDVELRHPNKEDYFNMREALIGGRCISVNGIYKDVLCLDVKSLYPASMAFYDQPYGSFKRVSSRPKDELGIYYVRVTPNRNNKSNFFPIRSHNKITYNNFEESRYIAWYTNVDIDIGLSEGHNIEYIPFDSYGNIGYSWSKKGKIFEKYIKDVLYKLKIKYEKQNNKVKRNVIKIIMNSLWGKFAQKWVNFEYFIKSEDDIDFESEEAYKIWDTDFMLIKKIKESTYSSKPIQNGVFTLSWARYHMKSIWDAGAKEGAECIYSDTDSIFVHKEHFKKNAKFMLNGLKVPIIGSEVGQLELECEFDKLLCAGKKQYMGFYTYFQDGKPCIKEKKRFKGIPSNYIIPELYAHLLSGADKEAKIQFLKFRREWGSVKGYIENKTVKAT | 2 fold
5 | T706Q: TP-DNAP1 variant (protein) MDYKDKALNDLRNVYADFDSLPLDFRQILIKDRATLLQKEDVEKKILERQEDAKKYAEYLKQSEIPERISLPNIKRHKGVSISFEETSEDMVLEPRPFIFDGLNIRCFRRETIFSLKNKILNMVKESSSFKNVSRQSVSFMYFKIFNKGKVIASTKSVNIYEDKIDERLEDLCNNFDDVLKKIIDVTYGYESLFVSETYSYVIFYAKSIYFPQPRCVNNWGNNIPNILTFDSFKLFTANKNNVSCIKQCSRFLWQKDFNTLEEMIEYKNGNICIVTPQLHINDVRDIKSFNDIRLYSESPIKTFSVIDNTITYLFYFKEHLGVIFNITKSRHDRRVTKFSPLSKFSDVKNITVCFDIESYFDPEKESNQVNIPFICCASIIYNKVIGNIVDFEGRDCVAQMIEYVVDICGELNISSVELIAHNGGGYDFHYILSSMYNPAAIKNILIRNNSFISFNFAHDGVKFSVKDSYSFLLCSLANASKAFLNEETFKKTDFPHHDLKTADDLYKVYKEWSSVNTEINHVVEKEKLLITSEHIVNFTKNDKSKTLIEWSKDYCRNDVLVLSKVWLEFKNAVEDIFNCELVDQTMTLAGLSYKLFQANMPFDVELRHPNKEDYFNMREALIGGRCISVNGIYKDVLCLDVKSLYPASMAFYDQPYGSFKRVSSRPKDELGIYYVRVTPNRNNKSNFFPIRSHNKITYNNFEESQYIAWYTNVDIDIGLSEGHNIEYIPFDSYGNIGYSWSKKGKIFEKYIKDVLYKLKIKYEKQNNKVKRNVIKIIMNSLWGKFAQKWVNFEYFIKSEDDIDFESEEAYKIWDTDFMLIKKIKESTYSSKPIQNGVFTLSWARYHMKSIWDAGAKEGAECIYSDTDSIFVHKEHFKKNAKFMLNGLKVPIIGSEVGQLELECEFDKLLCAGKKQYMGFYTYFQDGKPCIKEKKRFKGIPSNYIIPELYAHLLSGADKEAKIQFLKFRREWGSVKGYIENKTVKAT | 2.92 fold
6 | T706G: TP-DNAP1 variant (protein) MDYKDKALNDLRNVYADFDSLPLDFRQILIKDRATLLQKEDVEKKILERQEDAKKYAEYLKQSEIPERISLPNIKRHKGVSISFEETSEDMVLEPRPFIFDGLNIRCFRRETIFSLKNKILNMVKESSSFKNVSRQSVSFMYFKIFNKGKVIASTKSVNIYEDKIDERLEDLCNNFDDVLKKIIDVTYGYESLFVSETYSYVIFYAKSIYFPQPRCVNNWGNNIPNILTFDSFKLFTANKNNVSCIKQCSRFLWQKDFNTLEEMIEYKNGNICIVTPQLHINDVRDIKSFNDIRLYSESPIKTFSVIDNTITYLFYFKEHLGVIFNITKSRHDRRVTKFSPLSKFSDVKNITVCFDIESYFDPEKESNQVNIPFICCASIIYNKVIGNIVDFEGRDCVAQMIEYVVDICGELNISSVELIAHNGGGYDFHYILSSMYNPAAIKNILIRNNSFISFNFAHDGVKFSVKDSYSFLLCSLANASKAFLNEETFKKTDFPHHDLKTADDLYKVYKEWSSVNTEINHVVEKEKLLITSEHIVNFTKNDKSKTLIEWSKDYCRNDVLVLSKVWLEFKNAVEDIFNCELVDQTMTLAGLSYKLFQANMPFDVELRHPNKEDYFNMREALIGGRCISVNGIYKDVLCLDVKSLYPASMAFYDQPYGSFKRVSSRPKDELGIYYVRVTPNRNNKSNFFPIRSHNKITYNNFEESGYIAWYTNVDIDIGLSEGHNIEYIPFDSYGNIGYSWSKKGKIFEKYIKDVLYKLKIKYEKQNNKVKRNVIKIIMNSLWGKFAQKWVNFEYFIKSEDDIDFESEEAYKIWDTDFMLIKKIKESTYSSKPIQNGVFTLSWARYHMKSIWDAGAKEGAECIYSDTDSIFVHKEHFKKNAKFMLNGLKVPIIGSEVGQLELECEFDKLLCAGKKQYMGFYTYFQDGKPCIKEKKRFKGIPSNYIIPELYAHLLSGADKEAKIQFLKFRREWGSVKGYIENKTVKAT | 1.72 fold
